From patent US20220033483A1 (GUAGNDONG FEIPENG BIOLOGICAL, published 2022)

Target: T1, cTnI quality control product recombinant protein (human, UniProt P19429 1-210, limits assumed)
T1 construct: the assay paragraphs only say cTnI; also called cardiac troponin I; cTnI antigen
Experiment: AMC biosensor, antibody on sensor
Description: Operating process: it is equilibrated in Buffer 1 (PBST) for 60 s, the antibody is immobilized in an antibody solution for 300 s, incubated in Buffer 2 (PBST) for 180 s, bound in antigen solution for 420 s, dissociated in the Buffer 2 for 1200 s, 10 mM of GLY solution with pH 1.69 and Buffer 3 are used for sensor regeneration, and data is output.

T1 sequence (P19429 whole entry): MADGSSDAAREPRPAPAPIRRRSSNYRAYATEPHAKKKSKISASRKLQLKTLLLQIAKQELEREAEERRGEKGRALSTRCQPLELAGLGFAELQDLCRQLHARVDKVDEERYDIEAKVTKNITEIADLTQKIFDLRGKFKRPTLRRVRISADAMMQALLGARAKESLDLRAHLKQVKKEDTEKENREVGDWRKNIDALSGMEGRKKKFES

Binder | Kd [nM] | koff [s⁻¹] | kon [M⁻¹ s⁻¹]
WT 1-4 (antibody, V domains shown) VH: QVQLQQSGTELAKPGASVKFSCKASDYTFSTYWMYWIKQRPGQGLEWIGYINPSSGHTEYNQRFKDKATLTADKSSSTAYMQLNSLTSEDSAVYYCARKYYGPFAMDYWGQGTSVTVSS VL: EIFLTQSPAIMSASPGEKVTMTCSASTTVSYAHWYQQKSGTSPKRWLYDSSKIASGIPVRFSGSGSGTSYSLTISSMEAEDAATYYCQNWSTNPYTFGGGTKLEIKR | 31.8 | 0.000922 | 29000
Mutation 1-18 (antibody, V domains shown) VH: QVQLQQSGTELAKPGASVKFSCKASGYTFTTYWMYWIKQRPGQGLEWIGYINPSSGHTDYNQRFKDKATLTADKSSSTAYMQLNSLTSEDSAVYYCARRYFGPFGMDYWGQGTSVTVSS VL: EIFLTQSPAIMSASPGEKVTMTCSASTTVSYVHWYQQKSGTSPKRWLYDTSKLASGIPVRFSGSGSGTSYSLTISSMEAEDAATYYCQQWSSQPYTFGGGTKLEIKR | 2.3 | 8.41e-05 | 36500
Mutation 1-1 (antibody, V domains shown) VH: QVQLQQSGTELAKPGASVKFSCKASGYTFSTYWMYWIKQRPGQGLEWIGYINPSTGHTDYNQKFKDKATLTADKSSSTAYMQLNSLTSEDSAVYYCARRYYGPFGMDYWGQGTSVTVSS VL: EIFLTQSPAIMSASPGEKVTMTCSASSSVSYVHWYQQKSGTSPKRWIYDTSKIASGIPVRFSGSGSGTSYSLTISSMEAEDAATYYCQQWSTNPYTFGGGTKLEIKR | 7.73 | 0.000118 | 15300
Mutation 1-36 (antibody, V domains shown) VH: QVQLQQSGTELAKPGASVKFSCKASGYTFSTYWMYWIKQRPGQGLEWIGYINPSSGHTDYNQRFKDKATLTADKSSSTAYMQLNSLTSEDSAVYYCARRYWGPFGMDYWGQGTSVTVSS VL: EIFLTQSPAIMSASPGEKVTMTCSASSTVSYVHWYQQKSGTSPKRWLYDTSKIASGIPVRFSGSGSGTSYSLTISSMEAEDAATYYCQQWSTNPYTFGGGTKLEIKR | 5.49 | 9.5e-05 | 17300
Mutation 1-47 (antibody, V domains shown) VH: QVQLQQSGTELAKPGASVKFSCKASGYTFTTYWMYWIKQRPGQGLEWIGYLNPSTGHTDYNQKFKDKATLTADKSSSTAYMQLNSLTSEDSAVYYCARRYYGPFGMDYWGQGTSVTVSS VL: EIFLTQSPAIMSASPGEKVTMTCSASTTVSYVHWYQQKSGTSPKRWLYDTSKIASGIPVRFSGSGSGTSYSLTISSMEAEDAATYYCQQWSTQPYTFGGGTKLEIKR | 2.03 | 6.94e-05 | 34100
Mutation 1-24 (antibody, V domains shown) VH: QVQLQQSGTELAKPGASVKFSCKASGYTFSTYWMYWIKQRPGQGLEWIGYINPSTGHTDYNQKFKDKATLTADKSSSTAYMQLNSLTSEDSAVYYCARRYFGPFGMDYWGQGTSVTVSS VL: EIFLTQSPAIMSASPGEKVTMTCSASSTVSYVHWYQQKSGTSPKRWLYDTSKIASGIPVRFSGSGSGTSYSLTISSMEAEDAATYYCQQWSSNPYTFGGGTKLEIKR | 9.29 | 0.000173 | 18600
Mutation 1-32 (antibody, V domains shown) VH: QVQLQQSGTELAKPGASVKFSCKASGYTFSTYWMYWIKQRPGQGLEWIGYLNPSSGHTDYNQRFKDKATLTADKSSSTAYMQLNSLTSEDSAVYYCARKYWGPFGMDYWGQGTSVTVSS VL: EIFLTQSPAIMSASPGEKVTMTCSASSTVSYVHWYQQKSGTSPKRWLYDTSKIASGIPVRFSGSGSGTSYSLTISSMEAEDAATYYCQQWSSNPYTFGGGTKLEIKR | 0.548 | 1.78e-05 | 32400
Mutation 1-12 (antibody, V domains shown) VH: QVQLQQSGTELAKPGASVKFSCKASGYTFSTYWMYWIKQRPGQGLEWIGYLNPSTGHTDYNQRFKDKATLTADKSSSTAYMQLNSLTSEDSAVYYCARRYFGPFGMDYWGQGTSVTVSS VL: EIFLTQSPAIMSASPGEKVTMTCSASTTVSYVHWYQQKSGTSPKRWLYDTSKIASGIPVRFSGSGSGTSYSLTISSMEAEDAATYYCQQWSTQPYTFGGGTKLEIKR | 3.29 | 6.88e-05 | 20900
Mutation 1-9 (antibody, V domains shown) VH: QVQLQQSGTELAKPGASVKFSCKASGYTFSSYWMYWIKQRPGQGLEWIGYINPSSGHTDYNQRFKDKATLTADKSSSTAYMQLNSLTSEDSAVYYCARKYFGPFGMDYWGQGTSVTVSS VL: EIFLTQSPAIMSASPGEKVTMTCSASSSVSYVHWYQQKSGTSPKRWIYDTSKIASGIPVRFSGSGSGTSYSLTISSMEAEDAATYYCQQWSTQPYTFGGGTKLEIKR | 0.813 | 2.45e-05 | 30100
Mutation 1-25 (antibody, V domains shown) VH: QVQLQQSGTELAKPGASVKFSCKASGYTFSSYWMYWIKQRPGQGLEWIGYINPSSGHTDYNQRFKDKATLTADKSSSTAYMQLNSLTSEDSAVYYCARRYYGPFGMDYWGQGTSVTVSS VL: EIFLTQSPAIMSASPGEKVTMTCSASTSVSYVHWYQQKSGTSPKRWIYDTSKIASGIPVRFSGSGSGTSYSLTISSMEAEDAATYYCQQWSSNPYTFGGGTKLEIKR | 1.7 | 6.15e-05 | 36200
Mutation 1-8 (antibody, V domains shown) VH: QVQLQQSGTELAKPGASVKFSCKASGYTFSTYWMYWIKQRPGQGLEWIGYINPSTGHTDYNQKFKDKATLTADKSSSTAYMQLNSLTSEDSAVYYCARRYWGPFGMDYWGQGTSVTVSS VL: EIFLTQSPAIMSASPGEKVTMTCSASTTVSYVHWYQQKSGTSPKRWLYDTSKIASGIPVRFSGSGSGTSYSLTISSMEAEDAATYYCQQWSTQPYTFGGGTKLEIKR | 9.35 | 0.000105 | 11200

Continued by falling Kd, values first:

Kd [nM] | koff [s⁻¹] | kon [M⁻¹ s⁻¹] | Binder
5.72 | 0.000211 | 36900 | Mutation 1-4 (antibody, V domains shown) VH: QVQLQQSGTELAKPGASVKFSCKASGYTFSTYWMYWIKQRPGQGLEWIGYINPSSGHTDYNQRFKDKATLTADKSSSTAYMQLNSLTSEDSAVYYCARKYYGPFGMDYWGQGTSVTVSS VL: EIFLTQSPAIMSASPGEKVTMTCSASTTVSYVHWYQQKSGTSPKRWLYDTSKIASGIPVRFSGSGSGTSYSLTISSMEAEDAATYYCQQWSTNPYTFGGGTKLEIKR
4.19 | 0.000155 | 37000 | Mutation 1-10 (antibody, V domains shown) VH: QVQLQQSGTELAKPGASVKFSCKASGYTFTSYWMYWIKQRPGQGLEWIGYINPSTGHTDYNQRFKDKATLTADKSSSTAYMQLNSLTSEDSAVYYCARKYYGPFGMDYWGQGTSVTVSS VL: EIFLTQSPAIMSASPGEKVTMTCSASSTVSYVHWYQQKSGTSPKRWLYDTSKLASGIPVRFSGSGSGTSYSLTISSMEAEDAATYYCQQWSTQPYTFGGGTKLEIKR
4.18 | 6.9e-05 | 16500 | Mutation 1-44 (antibody, V domains shown) VH: QVQLQQSGTELAKPGASVKFSCKASGYTFSTYWMYWIKQRPGQGLEWIGYINPSSGHTDYNQRFKDKATLTADKSSSTAYMQLNSLTSEDSAVYYCARKYYGPFGMDYWGQGTSVTVSS VL: EIFLTQSPAIMSASPGEKVTMTCSASSSVSYVHWYQQKSGTSPKRWIYDTSKIASGIPVRFSGSGSGTSYSLTISSMEAEDAATYYCQQWSTNPYTFGGGTKLEIKR
4.16 | 0.000138 | 33200 | Mutation 1-40 (antibody, V domains shown) VH: QVQLQQSGTELAKPGASVKFSCKASGYTFSTYWMYWIKQRPGQGLEWIGYLNPSSGHTDYNQRFKDKATLTADKSSSTAYMQLNSLTSEDSAVYYCARRYFGPFGMDYWGQGTSVTVSS VL: EIFLTQSPAIMSASPGEKVTMTCSASSTVSYVHWYQQKSGTSPKRWLYDTSKIASGIPVRFSGSGSGTSYSLTISSMEAEDAATYYCQQWSTNPYTFGGGTKLEIKR
1.73 | 8.25e-05 | 47800 | Mutation 1-22 (antibody, V domains shown) VH: QVQLQQSGTELAKPGASVKFSCKASGYTFTTYWMYWIKQRPGQGLEWIGYLNPSSGHTDYNQKFKDKATLTADKSSSTAYMQLNSLTSEDSAVYYCARKYYGPFGMDYWGQGTSVTVSS VL: EIFLTQSPAIMSASPGEKVTMTCSASTTVSYVHWYQQKSGTSPKRWLYDTSKLASGIPVRFSGSGSGTSYSLTISSMEAEDAATYYCQQWSSQPYTFGGGTKLEIKR
1.39 | 6.64e-05 | 47700 | Mutation 1-16 (antibody, V domains shown) VH: QVQLQQSGTELAKPGASVKFSCKASGYTFSTYWMYWIKQRPGQGLEWIGYINPSSGHTDYNQKFKDKATLTADKSSSTAYMQLNSLTSEDSAVYYCARKYYGPFGMDYWGQGTSVTVSS VL: EIFLTQSPAIMSASPGEKVTMTCSASTTVSYVHWYQQKSGTSPKRWLYDTSKIASGIPVRFSGSGSGTSYSLTISSMEAEDAATYYCQQWSTQPYTFGGGTKLEIKR
0.941 | 1.39e-05 | 14800 | Mutation 1-28 (antibody, V domains shown) VH: QVQLQQSGTELAKPGASVKFSCKASGYTFSTYWMYWIKQRPGQGLEWIGYLNPSTGHTDYNQRFKDKATLTADKSSSTAYMQLNSLTSEDSAVYYCARKYYGPFGMDYWGQGTSVTVSS VL: EIFLTQSPAIMSASPGEKVTMTCSASTTVSYVHWYQQKSGTSPKRWLYDTSKIASGIPVRFSGSGSGTSYSLTISSMEAEDAATYYCQQWSSNPYTFGGGTKLEIKR
0.404 | 1.92e-05 | – | Mutation 1-34 (antibody, V domains shown) VH: QVQLQQSGTELAKPGASVKFSCKASGYTFTSYWMYWIKQRPGQGLEWIGYINPSSGHTDYNQKFKDKATLTADKSSSTAYMQLNSLTSEDSAVYYCARKYYGPFGMDYWGQGTSVTVSS VL: EIFLTQSPAIMSASPGEKVTMTCSASTTVSYVHWYQQKSGTSPKRWLYDTSKLASGIPVRFSGSGSGTSYSLTISSMEAEDAATYYCQQWSSNPYTFGGGTKLEIKR
